Here are results for 4 molecules from publication PMC12339401 (2025).

For experiment [1], the target named is NIX(1–182)-GST (Homo sapiens (Human), UniProt O60238). The experiment is described as follows: microscopy-based bead assay.
For experiment [2], the target named is GST-FAM134C (residues 250–466) (Homo sapiens (Human), UniProt Q86VR2). The experiment is described as follows: microscopy-based bead assay.
GST-FAM134C (residues 250–466), sequence (Q86VR2 250-466): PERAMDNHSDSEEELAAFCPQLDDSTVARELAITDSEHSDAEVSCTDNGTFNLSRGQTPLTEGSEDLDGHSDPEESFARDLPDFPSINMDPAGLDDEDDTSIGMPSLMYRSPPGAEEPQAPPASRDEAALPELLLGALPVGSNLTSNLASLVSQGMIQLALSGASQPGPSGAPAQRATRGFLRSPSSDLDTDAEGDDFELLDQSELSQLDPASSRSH

NIX(1–182)-GST, sequence (O60238 1-182): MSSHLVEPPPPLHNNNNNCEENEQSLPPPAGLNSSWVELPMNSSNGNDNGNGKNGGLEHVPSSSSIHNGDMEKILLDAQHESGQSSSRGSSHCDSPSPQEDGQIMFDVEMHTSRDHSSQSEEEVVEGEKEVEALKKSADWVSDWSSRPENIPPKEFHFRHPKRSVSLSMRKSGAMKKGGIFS

B1: GFP-tagged TBK1 (protein)
chain: MQSTSNHLWLLSDILGQGATANVFRGRHKKTGDLFAIKVFNNISFLRPVDVQMREFEVLKKLNHKNIVKLFAIEEETTTRHKVLIMEFCPCGSLYTVLEEPSNAYGLPESEFLIVLRDVVGGMNHLRENGIVHRDIKPGNIMRVIGEDGQSVYKLTDFGAARELEDDEQFVSLYGTEEYLHPDMYERAVLRKDHQKKYGATVDLWSIGVTFYHAATGSLPFRPFEGPRRNKEVMYKIITGKPSGAISGVQKAENGPIDWSGDMPVSCSLSRGLQVLLTPVLANILEADQEKCWGFDQFFAETSDILHRMVIHVFSLQQMTAHKIYIHSYNTATIFHELVYKQTKIISSNQELIYEGRRLVLEPGRLAQHFPKTTEENPIFVVSREPLNTIGLIYEKISLPKVHPRYDLDGDASMAKAITGVVCYACRIASTLLLYQELMRKGIRWLIELIKDDYNETVHKKTEVVITLDFCIRNIEKTVKVYEKLMKINLEAAELGEISDIHTKLLRLSSSQGTIETSLQDIDSRLSPGGSLADAWAHQEGTHPKDRNVEKLQVLLNCMTEIYYQFKKDKAERRLAYNEEQIHKFDKQKLYYHATKAMTHFTDECVKKYEAFLNKSEEWIRKMLHLRKQLLSLTNQCFDIEEEVSKYQEYTNELQETLPQKMFTASSGIKHTMTPIYPSSNTLVEMTLGMKKLKEEMEGVVKELAENNHILERFGSLTMDGGLRNVDCL
As to B1, the binding result in experiment [1] is on record as “no binding”.

B2: mCherry-tagged WIPI1 (protein)
chain: MEAEAADAPPGGVESALSCFSFNQDCTSLATGTKAGYKLFSLSSVEQLDQVHGSNEIPDVYIVERLFSSSLVVVVSHTKPRQMNVYHFKKGTEICNYSYSSNILSIRLNRQRLLVCLEESIYIHNIKDMKLLKTLLDIPANPTGLCALSINHSNSYLAYPGSLTSGEIVLYDGNSLKTVCTIAAHEGTLAAITFNASGSKLASASEKGTVIRVFSVPDGQKLYEFRRGMKRYVTISSLVFSMDSQFLCASSNTETVHIFKLEQVTNSRPEEPSTWSGYMGKMFMAATNYLPTQVSDMMHQDRAFATARLNFSGQRNICTLSTIQKLPRLLVASSSGHLYMYNLDPQDGGECVLIKTHSLLGSGTTEENKENDLRPSLPQSYAATVARPSASSASTVPGYSEDGGALRGEVIPEHEFATGPVCLDDENEFPPIILCRGNQKGKTKQS
Consider B2, for which the binding result in experiment [1] was “binds”.

B3: mCherry-WIPI3 (protein)
chain: not shown
As to B3, the binding result in experiment [1] is “no binding”.

B4: GFP-FIP200 C-terminal region (CTR), residues 1429–1591 (protein)
chain: ADEGRVDSAMETSMMSVQENIHMLSEEKQRIMLLERTLQLKEEENKRLNQRLMSQSMSSVSSRHSEKIAIRDFQVGDLVLIILDERHDNYVLFTVSPTLYFLHSESLPALDLKPASGASRRPWVLGKVMEKEYCQAKKAQNRFKVPLGTKFYRVKAVSWNKKV
As for B4, the values for the binding result in experiment [1] and in experiment [2] were “no binding” and “binds”, respectively.
